Experimental data: paper PMC9666628 (Nature Communications, 2022)
“And” between values parts separate entries of the source, which are not always exact repeats. Equal entries are not always repeated.

T1: wild-type Cbx7 chromodomain (human, UniProt O95931 7-66)
T1 construct: chromodomain of human Cbx7; also called Cbx7.wt; source: E. coli BL21(DE3), purified (Ni-NTA), tags removed with TEV protease
T1 sequence: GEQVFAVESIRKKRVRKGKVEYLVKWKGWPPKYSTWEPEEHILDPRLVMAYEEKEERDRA

T2: Cbx7 chromodomain Q9D (human, UniProt O95931 7-66, Q9D)
T2 construct: chromodomain of human Cbx7; residues numbered on full-length Cbx7; also called Cbx7 Q9D; source: E. coli BL21(DE3), purified (Ni-NTA), tags removed with TEV protease
T2 sequence: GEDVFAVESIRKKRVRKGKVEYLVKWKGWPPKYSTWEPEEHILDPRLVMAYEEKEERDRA

T3: Cbx7 chromodomain K33E (human, UniProt O95931 7-66, K33E)
T3 construct: chromodomain of human Cbx7; residues numbered on full-length Cbx7; also called Cbx7 K33E; source: E. coli BL21(DE3), purified (Ni-NTA), tags removed with TEV protease
T3 sequence: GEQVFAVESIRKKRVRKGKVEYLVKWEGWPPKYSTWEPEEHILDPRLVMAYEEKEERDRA

T4: Cbx7.V1 chromodomain variant (tags removed, used for FP) (human, UniProt O95931 7-66, E8D (printed as the back-mutation D8E) | Q9D | V10I (printed as the …))
T4 construct: chromodomain of human Cbx7 with the six substitutions of the phage-selected variant V1; residues numbered on full-length Cbx7; source: E. coli BL21(DE3), purified (Ni-NTA), tags removed with TEV protease
T4 sequence: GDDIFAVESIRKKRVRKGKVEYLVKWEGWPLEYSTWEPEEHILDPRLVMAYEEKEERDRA

T5: Cbx7 chromodomain with the double substitution Q9D/K33E (human, UniProt O95931 7-66, Q9D | K33E)
T5 construct: chromodomain of human Cbx7; residues numbered on full-length Cbx7; also called Cbx7.VD; source: E. coli BL21(DE3), purified (Ni-NTA), tags removed with TEV protease
T5 sequence: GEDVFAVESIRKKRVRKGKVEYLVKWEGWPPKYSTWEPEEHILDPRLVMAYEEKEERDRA

T6: wild-type Cbx2 chromodomain (human, UniProt Q14781 9-62)
T6 construct: chromodomain of human Cbx2; also called Cbx2.wt; source: E. coli BL21(DE3), purified (Ni-NTA), tags removed with TEV protease
T6 sequence: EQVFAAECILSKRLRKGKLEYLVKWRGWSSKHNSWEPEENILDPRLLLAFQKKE

T7: Cbx7.V1 chromodomain variant (protein used for BLI) (human, UniProt O95931 7-66, E8D (printed as the back-mutation D8E) | Q9D | V10I (printed as the …))
T7 construct: chromodomain of human Cbx7 with the six substitutions of the phage-selected variant V1; residues numbered on full-length Cbx7; for BLI they were probably still on the protein; source: E. coli BL21(DE3), purified (Ni-NTA)
T7 sequence: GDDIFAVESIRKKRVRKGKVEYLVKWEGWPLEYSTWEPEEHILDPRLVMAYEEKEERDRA

T8: Cbx7.V1 back-mutant D8E (human, UniProt O95931 7-66, Q9D | V10I (printed as the back-mutation I10V) | K33E | P37L (printed as the …))
T8 construct: chromodomain of human Cbx7, variant V1 with residue 8 put back to the wild type; residues numbered on full-length Cbx7; Tags probably still on the protein in BLI (removal is told for FP and ITC only); source: E. coli BL21(DE3), purified (Ni-NTA)
T8 sequence: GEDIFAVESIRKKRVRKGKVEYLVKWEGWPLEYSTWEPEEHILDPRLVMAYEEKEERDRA

T9: Cbx7.V1 back-mutant I10V (human, UniProt O95931 7-66, E8D (printed as the back-mutation D8E) | Q9D | K33E | P37L (printed as the …))
T9 construct: chromodomain of human Cbx7, variant V1 with residue 10 put back to the wild type; residues numbered on full-length Cbx7; Tags probably still on the protein in BLI (removal is told for FP and ITC only); source: E. coli BL21(DE3), purified (Ni-NTA)
T9 sequence: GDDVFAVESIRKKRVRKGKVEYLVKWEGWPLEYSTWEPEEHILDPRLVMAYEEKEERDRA

T10: Cbx7.V1 back-mutant E33K (human, UniProt O95931 7-66, E8D (printed as the back-mutation D8E) | Q9D | V10I (printed as the …))
T10 construct: chromodomain of human Cbx7, variant V1 with residue 33 put back to the wild type; residues numbered on full-length Cbx7; Tags probably still on the protein in BLI (removal is told for FP and ITC only); source: E. coli BL21(DE3), purified (Ni-NTA)
T10 sequence: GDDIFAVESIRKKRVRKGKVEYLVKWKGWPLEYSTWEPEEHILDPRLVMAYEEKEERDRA

T11: Cbx7.V1 back-mutant L37P (human, UniProt O95931 7-66, E8D (printed as the back-mutation D8E) | Q9D | V10I (printed as the …))
T11 construct: chromodomain of human Cbx7, variant V1 with residue 37 put back to the wild type; residues numbered on full-length Cbx7; Tags probably still on the protein in BLI (removal is told for FP and ITC only); source: E. coli BL21(DE3), purified (Ni-NTA)
T11 sequence: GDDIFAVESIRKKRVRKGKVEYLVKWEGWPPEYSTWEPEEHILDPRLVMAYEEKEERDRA

T12: Cbx7.V1 back-mutant E38K (human, UniProt O95931 7-66, E8D (printed as the back-mutation D8E) | Q9D | V10I (printed as the …))
T12 construct: chromodomain of human Cbx7, variant V1 with residue 38 put back to the wild type; residues numbered on full-length Cbx7; Tags probably still on the protein in BLI (removal is told for FP and ITC only); source: E. coli BL21(DE3), purified (Ni-NTA)
T12 sequence: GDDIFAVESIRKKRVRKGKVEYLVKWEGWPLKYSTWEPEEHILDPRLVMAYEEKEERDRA

T13: Cbx7.V1 back-mutant D9Q (human, UniProt O95931 7-66, E8D (printed as the back-mutation D8E) | V10I (printed as the back-mutation …))
T13 construct: chromodomain of human Cbx7, variant V1 with residue 9 put back to the wild type; residues numbered on full-length Cbx7; Tags probably still on the protein in BLI (removal is told for FP and ITC only); source: E. coli BL21(DE3), purified (Ni-NTA)
T13 sequence: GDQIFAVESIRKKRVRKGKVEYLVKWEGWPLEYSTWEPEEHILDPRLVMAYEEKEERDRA


Experiments:
Conditions in all cases: both partners purified
[1] = molecular target: T1, wild-type Cbx7 chromodomain; assay: fluorescence polarisation; 0.5 nM FITC-labeled peptide, chromodomain serially diluted (wild types 200-0.2 µM; Cbx7.V1 and Cbx.VDs 50 µM-50 nM); 25 °C, 30 min; 25 mM HEPES pH 7.5, 150 mM NaCl, 1 mM DTT, 0.01% TritonX-100; one-site total binding model; values of single replicates
Cbx7 chromodomain Q9D = molecular target: T2, Cbx7 chromodomain Q9D; assay: as above
Cbx7 chromodomain K33E = molecular target: T3, Cbx7 chromodomain K33E; assay: as above
[2] = molecular target: T4, Cbx7.V1 chromodomain variant (tags …); assay: as above
[3] = molecular target: T5, Cbx7 chromodomain with the double …; assay: as above
[4] = molecular target: T1, wild-type Cbx7 chromodomain; assay: as above; remark: listed apart in the source
[5] = molecular target: T5, Cbx7 chromodomain with the double …; assay: as above; remark: listed apart in the source
[6] = molecular target: T6, wild-type Cbx2 chromodomain; assay: as above
[7] = molecular target: T7, Cbx7.V1 chromodomain variant (protein …); assay: BLI; biotinylated peptide on streptavidin biosensor tips, chromodomain in solution at 5 or 1 µM; 25 °C; 25 mM HEPES pH 7.0, 150 mM NaCl, 1 mg/ml BSA, 0.01% Tween-20; steady-state fit, Langmuir model; values of single replicates
Cbx7.V1 back-mutant D8E = molecular target: T8, Cbx7.V1 back-mutant D8E; assay: as above
Cbx7.V1 back-mutant I10V = molecular target: T9, Cbx7.V1 back-mutant I10V; assay: as above
Cbx7.V1 back-mutant E33K = molecular target: T10, Cbx7.V1 back-mutant E33K; assay: as above
Cbx7.V1 back-mutant L37P = molecular target: T11, Cbx7.V1 back-mutant L37P; assay: as above
Cbx7.V1 back-mutant E38K = molecular target: T12, Cbx7.V1 back-mutant E38K; assay: as above
[8] = molecular target: T14, wild-type Cbx1 chromodomain (human, UniProt P83916 20-73); assay: fluorescence polarisation; 0.5 nM FITC-labeled peptide, chromodomain serially diluted (wild types 200-0.2 µM; Cbx7.V1 and Cbx.VDs 50 µM-50 nM); 25 °C, 30 min; 25 mM HEPES pH 7.5, 150 mM NaCl, 1 mM DTT, 0.01% TritonX-100; one-site total binding model; values of single replicates
T14 construct: chromodomain of human Cbx1; also called Cbx1.wt; source: E. coli BL21(DE3), purified (Ni-NTA), tags removed with TEV protease

[9] = molecular target: T15, wild-type Cbx5 chromodomain (human, UniProt P45973 18-75); assay: as above
T15 construct: chromodomain of human Cbx5; also called Cbx5.wt; source: E. coli BL21(DE3), purified (Ni-NTA), tags removed with TEV protease

Cbx7.V1 back-mutant D9Q = molecular target: T13, Cbx7.V1 back-mutant D9Q; assay: BLI; biotinylated peptide on streptavidin biosensor tips, chromodomain in solution at 5 or 1 µM; 25 °C; 25 mM HEPES pH 7.0, 150 mM NaCl, 1 mg/ml BSA, 0.01% Tween-20; steady-state fit, Langmuir model; values of single replicates

T14 sequence (P83916 20-73, looked up): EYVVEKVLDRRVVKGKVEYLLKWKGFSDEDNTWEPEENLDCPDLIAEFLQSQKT
T15 sequence (P45973 18-75, looked up): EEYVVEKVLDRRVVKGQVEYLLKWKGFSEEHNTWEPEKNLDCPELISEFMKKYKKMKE

Binder	Kd [1]	Kd (Cbx7 chromodomain Q9D)	Kd (Cbx7 chromodomain K33E)	Kd [2]	Kd [3]	Kd [4]	Kd [5]	Kd [6]	Kd [7]	Kd (Cbx7.V1 back-mutant D8E)	Kd (Cbx7.V1 back-mutant I10V)	Kd (Cbx7.V1 back-mutant E33K)	Kd (Cbx7.V1 back-mutant L37P)	Kd (Cbx7.V1 back-mutant E38K)	Kd [8]	Kd [9]	Kd (Cbx7.V1 back-mutant D9Q)
KQLATKAARKSAPATGGVK (trimethyl-lysine at K27; fluorescein isothiocyanate (FITC) at the N-terminus) [H3K27me3 peptide, FITC-labeled]	115 µM and 79 µM and 143 µM	115 µM and 101 µM and 84 µM	17.5 µM and 21 µM and 19 µM	4.5 µM and 3.9 µM and 3.4 µM	5.1 µM and 4.7 µM and 5.2 µM	138 µM and 84 µM and 109 µM	4.8 µM and 5.2 µM	117 µM and 101 µM and 84 µM	–	–	–	–	–	–	–	–	–
ARTKQTARKSTGGKAPR (trimethyl-lysine at K9; fluorescein isothiocyanate (FITC) at the N-terminus) [H3K9me3 peptide, FITC-labeled]	41 µM and 27 µM and 23 µM	11 µM and 9.7 µM and 9.4 µM	24 µM and 18 µM and 19 µM	7.5 µM and 5.7 µM and 7.8 µM	8.4 µM and 7.4 µM and 8.2 µM	33.5 µM and 37 µM and 23 µM	8.6 µM and 7.5 µM	–	–	–	–	–	–	–	0.453 µM and 0.543 µM and 0.529 µM	5.6 µM and 5 µM and 4.8 µM	–

More lines, now with the values ahead:

Kd [1]	Kd (Cbx7 chromodomain Q9D)	Kd (Cbx7 chromodomain K33E)	Kd [2]	Kd [3]	Kd [4]	Kd [5]	Kd [6]	Kd [7]	Kd (Cbx7.V1 back-mutant D8E)	Kd (Cbx7.V1 back-mutant I10V)	Kd (Cbx7.V1 back-mutant E33K)	Kd (Cbx7.V1 back-mutant L37P)	Kd (Cbx7.V1 back-mutant E38K)	Kd [8]	Kd [9]	Kd (Cbx7.V1 back-mutant D9Q)	Binder
–	–	–	–	–	–	–	–	4.9 µM and 4.2 µM	5.3 µM and 4.7 µM	4 µM and 3 µM	8.5 µM and 12 µM	2.7 µM and 3.3 µM	1.9 µM and 2.1 µM	–	–	–	ARTKQTARKSTGGKAPR (trimethyl-lysine at K9; biotin followed by an aminohexanoic acid linker at the N-terminus) [H3K9me3 peptide, biotinylated]
–	–	–	–	–	–	–	–	2 µM and 2.2 µM	1.9 µM and 2.2 µM	2.8 µM and 1.6 µM	–	2.8 µM and 2.2 µM	1.5 µM and 1.7 µM	–	–	1.6 µM and 2.7 µM	KQLATKAARKSAPATGGVK (trimethyl-lysine at K27; biotin followed by an aminohexanoic acid linker at the N-terminus) [H3K27me3 peptide, biotinylated]
